For the assay, the target named is T1, Human OX40 (Sino Biological Inc) (human, UniProt P43489 29-216, limits assumed).
T1 construct: Bought soluble protein used as SPR analyte; also called huOX40
T1 sequence: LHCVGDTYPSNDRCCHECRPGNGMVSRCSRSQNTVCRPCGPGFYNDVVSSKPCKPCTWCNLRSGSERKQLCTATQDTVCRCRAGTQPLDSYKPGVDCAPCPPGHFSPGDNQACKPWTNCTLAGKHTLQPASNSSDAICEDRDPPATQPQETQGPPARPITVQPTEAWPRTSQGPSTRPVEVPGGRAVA
Put plainly: SPR (Biacore), antibody captured via anti-human Fc, huOX40 analyte. The procedure:
The binding kinetics of the anti-OX40 antibodies was measured using surface plasmon resonance (SPR) on a Biacore 3000 instrument (GE Healthcare). Anti-human Fc (GE Healthcare) was immobilized on a CM5 sensor chip via amine-based coupling using manufacturer provided protocol. Anti-OX40 antibody was captured at a level of 300-400 resonance units (RU). Antibody binding was measured to human OX40 (Sino Biological Inc). Two-fold concentration series of huOX40 with a range of either 18.75 to 300 nM or 6.25 to 200 nM were used for the experiments. Sensorgrams for binding of OX40 were recorded using an injection time of 2 minutes with a flow rate of 30 μl/min, at a temperature of 25° C., and with a running buffer of 10 mM HEPES, pH 7.4, 150 mM NaCl, and 0.005% Tween 20. After injection, disassociation of the ligand from the antibody was monitored for 600 seconds in running buffer. The surface was regenerated between binding cycles with a 40 μl injection of 3 M Magnesium Chloride.
(In general: SPR reads the build-up and loss of mass on a sensor chip optically.)

Drawing on patent US20150307617A1 (Genentech, published 2015), this text covers Kd, koff and kon for 17 molecules.

B1: 3C8.gr.1 (antibody, V domains shown)
VH: EVQLVQSGAEVKKPGASVKVSCKASGYAFTNYLIEWVRQAPGQGLEWIGVINPGSGDTYYSEKFKGRVTITRDTSTSTAYLELSSLRSEDTAVYYCARDRLDYWGQGTLVTVSS
VL: DIQMTQSPSSLSASVGDRVTITCHASQDISSYIVWYQQKPGKAPKLLIYHGTNLEDGVPSRFSGSGSGTDFTLTISSLQPEDFATYYCVHYAQFPYTFGQGTKVEIK
notes: human Fc
In turn, B1 registered a Kd of 6.49 nM, a koff of 0.00267 s⁻¹ and a kon of 412000 M⁻¹ s⁻¹.

B2: 3C8.gr.11 (antibody, V domains shown)
VH: EVQLVQSGAEVKKPGASVKVSCKASGYAFTNYLIEWVRQAPGQGLEWIGVINPGSGDTYYSEKFKGRVTLTRDTSTSTAYLELSSLRSEDTAVYYCARDRLDYWGQGTLVTVSS
VL: DIQMTQSPSSLSASVGDRVTITCHASQDISSYIVWYQQKPGKAPKGLIYHGTNLEDGVPSRFSGSGSGTDFTLTISSLQPEDFATYYCVHYAQFPYTFGQGTKVEIK
notes: human Fc
With B2, the affinity, expressed as Kd, was 2.86 nM; the koff amounted to 0.000917 s⁻¹; the kon came to 321000 M⁻¹ s⁻¹.

B3: 3C8.gr.8 (antibody, V domains shown)
VH: EVQLVQSGAEVKKPGASVKVSCKASGYAFTNYLIEWVRQAPGQGLEWIGVINPGSGDTYYSEKFKGRVTLTRDTSTSTAYLELSSLRSEDTAVYYCARDRLDYWGQGTLVTVSS
VL: DIQMTQSPSSLSASVGDRVTITCHASQDISSYIVWYQQKPGKSFKGLIYHGTNLEDGVPSRFSGSGSGTDFTLTISSLQPEDFATYYCVHYAQFPYTFGQGTKVEIK
notes: human Fc
In the case of B3, the Kd was found to be 2.16 nM, the koff was found to be 0.000709 s⁻¹ and the kon was 329000 M⁻¹ s⁻¹.

B4: 3C8.gr.7 (antibody, V domains shown)
VH: EVQLVQSGAEVKKPGASVKVSCKASGYAFTNYLIEWVRQAPGQGLEWIGVINPGSGDTYYSEKFKGRVTLTADTSTSTAYLELSSLRSEDTAVYYCARDRLDYWGQGTLVTVSS
VL: DIQMTQSPSSLSASVGDRVTITCHASQDISSYIVWYQQKPGKSFKGLIYHGTNLEDGVPSRFSGSGSGADYTLTISSLQPEDFATYYCVHYAQFPYTFGQGTKVEIK
notes: human Fc
Turning to B4, the Kd is 1.41 nM, the off-rate (koff) turned out to be 0.000685 s⁻¹ and the association rate constant (kon) stood at 486000 M⁻¹ s⁻¹.

B5: 3C8.gr.10 (antibody, V domains shown)
VH: EVQLVQSGAEVKKPGASVKVSCKASGYAFTNYLIEWVRQAPGQGLEWIGVINPGSGDTYYSEKFKGRVTLTRDTSTSTAYLELSSLRSEDTAVYYCARDRLDYWGQGTLVTVSS
VL: DIQMTQSPSSLSASVGDRVTITCHASQDISSYIVWYQQKPGKAFKLLIYHGTNLEDGVPSRFSGSGSGTDFTLTISSLQPEDFATYYCVHYAQFPYTFGQGTKVEIK
notes: human Fc
With B5, the Kd worked out at 2.84 nM, the koff came out at 0.00108 s⁻¹ and the kon is 382000 M⁻¹ s⁻¹.

B6: 3C8.gr.3 (antibody, V domains shown)
VH: EVQLVQSGAEVKKPGASVKVSCKASGYAFTNYLIEWVRQAPGQGLEWIGVINPGSGDTYYSEKFKGRVTLTADTSTSTAYLELSSLRSEDTAVYYCARDRLDYWGQGTLVTVSS
VL: DIQMTQSPSSLSASVGDRVTITCHASQDISSYIVWYQQKPGKAPKLLIYHGTNLEDGVPSRFSGSGSGTDFTLTISSLQPEDFATYYCVHYAQFPYTFGQGTKVEIK
notes: human Fc
B6 came in with a dissociation constant (Kd) of 3.94 nM, a koff of 0.00196 s⁻¹ and a kon of 498000 M⁻¹ s⁻¹.

B7: 3C8.gr.2 (antibody, V domains shown)
VH: EVQLVQSGAEVKKPGASVKVSCKASGYAFTNYLIEWVRQAPGQGLEWIGVINPGSGDTYYSEKFKGRVTITADTSTSTAYLELSSLRSEDTAVYYCARDRLDYWGQGTLVTVSS
VL: DIQMTQSPSSLSASVGDRVTITCHASQDISSYIVWYQQKPGKAPKLLIYHGTNLEDGVPSRFSGSGSGTDFTLTISSLQPEDFATYYCVHYAQFPYTFGQGTKVEIK
notes: human Fc
Molecule B7 yielded a Kd of 5.48 nM, an off-rate (koff) of 0.00255 s⁻¹ and a kon of 466000 M⁻¹ s⁻¹.

B8: 3C8.gr.4 (antibody, V domains shown)
VH: EVQLVQSGAEVKKPGASVKVSCKASGYAFTNYLIEWVRQAPGQGLEWIGVINPGSGDTYYSEKFKGRVTITADTSTSTAYLELSSLRSEDTAVYYCARDRLDYWGQGTLVTVSS
VL: DIQMTQSPSSLSASVGDRVTITCHASQDISSYIVWYQQKPGKSFKGLIYHGTNLEDGVPSRFSGSGSGTDFTLTISSLQPEDFATYYCVHYAQFPYTFGQGTKVEIK
notes: human Fc
Regarding B8, the affinity, expressed as Kd, was 2.2 nM; the koff was 0.000923 s⁻¹; the kon was found to be 420000 M⁻¹ s⁻¹.

B9: 3C8.gr.DA (antibody, V domains shown)
VH: EVQLVQSGAEVKKPGASVKVSCKASGYAFTNYLIEWVRQAPGQGLEWIGVINPGSGDAYYSEKFKGRVTLTADTSTSTAYLELSSLRSEDTAVYYCARDRLDYWGQGTLVTVSS
VL: DIQMTQSPSSLSASVGDRVTITCHASQDISSYIVWYQQKPGKSFKGLIYHGTNLEDGVPSRFSGSGSGTDFTLTISSLQPEDFATYYCVHYAQFPYTFGQGTKVEIK
notes: also called 3C8.gr.5.DA
In turn, B9 gave a Kd of 12.9 nM, a koff of 0.00502 s⁻¹ and a kon of 388000 M⁻¹ s⁻¹.

B10: 3C8.gr.9 (antibody, V domains shown)
VH: EVQLVQSGAEVKKPGASVKVSCKASGYAFTNYLIEWVRQAPGQGLEWIGVINPGSGDTYYSEKFKGRVTLTRDTSTSTAYLELSSLRSEDTAVYYCARDRLDYWGQGTLVTVSS
VL: DIQMTQSPSSLSASVGDRVTITCHASQDISSYIVWYQQKPGKSPKLLIYHGTNLEDGVPSRFSGSGSGTDFTLTISSLQPEDFATYYCVHYAQFPYTFGQGTKVEIK
notes: human Fc
For the molecule B10, the affinity, expressed as Kd, was 4.28 nM; the koff worked out at 0.00173 s⁻¹; the kon came out at 404000 M⁻¹ s⁻¹.

B11: 3C8.gr.6 (antibody, V domains shown)
VH: EVQLVQSGAEVKKPGASVKVSCKASGYAFTNYLIEWVRQAPGQGLEWIGVINPGSGDTYYSEKFKGRVTITADTSTSTAYLELSSLRSEDTAVYYCARDRLDYWGQGTLVTVSS
VL: DIQMTQSPSSLSASVGDRVTITCHASQDISSYIVWYQQKPGKSFKGLIYHGTNLEDGVPSRFSGSGSGADYTLTISSLQPEDFATYYCVHYAQFPYTFGQGTKVEIK
notes: human Fc
B11 showed a dissociation constant Kd of 3.08 nM, a koff of 0.00122 s⁻¹ and an on-rate constant (kon) of 395000 M⁻¹ s⁻¹.

B12: 3C8.gr.5.QG (antibody, V domains shown)
VH: EVQLVQSGAEVKKPGASVKVSCKASGYAFTNYLIEWVRQAPGQGLEWIGVINPGSGDTYYSEKFKGRVTLTADTSTSTAYLELSSLRSEDTAVYYCARDRLDYWGQGTLVTVSS
VL: DIQMTQSPSSLSASVGDRVTITCHASQDISSYIVWYQQKPGKSFKGLIYHGTNLEQGVPSRFSGSGSGTDFTLTISSLQPEDFATYYCVHYAQFPYTFGQGTKVEIK
Turning to B12, the Kd amounted to 1.17 nM, the koff amounted to 0.000534 s⁻¹ and the on-rate (kon) turned out to be 457000 M⁻¹ s⁻¹.

B13: 1A7.gr.3 (antibody, V domains shown)
VH: EVQLVQSGAEVKKPGASVKVSCKASGYTFTDSYMSWVRQAPGQGLEWIGDMYPDNGDSSYNQKFRERVTLTVDTSTSTAYLELSSLRSEDTAVYYCVLAPRWYFSVWGQGTLVTVSS
VL: DIQMTQSPSSLSASVGDRVTITCRASQDISNYLNWYQQKPGKAPKLLIYYTSRLRSGVPSRFSGSGSGTDFTLTISSLQPEDFATYYCQQGHTLPPTFGQGTKVEIK
notes: human Fc
The molecule B13 came in with a dissociation constant (Kd) of 0.525 nM, a koff of 0.000243 s⁻¹ and a kon of 462000 M⁻¹ s⁻¹.

B14: 1A7.gr.5′ (antibody, V domains shown)
VH: EVQLVQSGAEVKKPGASVKVSCKASGYTFTDSYMSWVRQAPGQGLEWIGDMYPDNGDSSYNQKFRERVTLTVDTSTSTAYLELSSLRSEDTAVYYCVLAPRWYFSVWGQGTLVTVSS
VL: DIQMTQSPSSLSASVGDRVTITCRASQDISNYLNWYQQKPGKTVKLLIYYTSRLRSGVPSRFSGSGSGTDFTLTISSLQPEDFATYYCQQGHTLPPTFGQGTKVEIK
notes: human Fc
Molecule B14 had a Kd of 1.77 nM, a koff of 0.000492 s⁻¹ and a kon of 278000 M⁻¹ s⁻¹.

B15: 1A7.gr.4 (antibody, V domains shown)
VH: EVQLVQSGAEVKKPGASVKVSCKASGYTFTDSYMSWVRQAPGQGLEWIGDMYPDNGDSSYNQKFRERVTITVDTSTSTAYLELSSLRSEDTAVYYCVLAPRWYFSVWGQGTLVTVSS
VL: DIQMTQSPSSLSASVGDRVTITCRASQDISNYLNWYQQKPGKTVKLLIYYTSRLRSGVPSRFSGSGSGTDFTLTISSLQPEDFATYYCQQGHTLPPTFGQGTKVEIK
notes: human Fc
Molecule B15 yielded an equilibrium dissociation constant (Kd) of 0.472 nM, a koff of 0.000163 s⁻¹ and a kon of 345000 M⁻¹ s⁻¹.

B16: 1A7.gr.6 (antibody, V domains shown)
VH: EVQLVQSGAEVKKPGASVKVSCKASGYTFTDSYMSWVRQAPGQGLEWIGDMYPDNGDSSYNQKFRERVTITVDTSTSTAYLELSSLRSEDTAVYYCVLAPRWYFSVWGQGTLVTVSS
VL: DIQMTQSPSSLSASVGDRVTITCRASQDISNYLNWYQQKPGKTVKLLIYYTSRLRSGVPSRFSGSGSGKDYTLTISSLQPEDFATYFCQQGHTLPPTFGQGTKVEIK
notes: human Fc
B16 showed an equilibrium dissociation constant (Kd) of 0.177 nM, a koff of 6.93e-05 s⁻¹ and a kon of 391000 M⁻¹ s⁻¹.

B17: 1A7.gr.7′ (antibody, V domains shown)
VH: EVQLVQSGAEVKKPGASVKVSCKASGYTFTDSYMSWVRQAPGQGLEWIGDMYPDNGDSSYNQKFRERVTLTVDTSTSTAYLELSSLRSEDTAVYYCVLAPRWYFSVWGQGTLVTVSS
VL: DIQMTQSPSSLSASVGDRVTITCRASQDISNYLNWYQQKPGKTVKLLIYYTSRLRSGVPSRFSGSGSGKDYTLTISSLQPEDFATYFCQQGHTLPPTFGQGTKVEIK
notes: human Fc
As for B17, the Kd was 0.36 nM, the koff stood at 0.000145 s⁻¹ and the association rate constant (kon) came out at 401000 M⁻¹ s⁻¹.

For orientation: Kd means the free concentration of one partner at which half of the binding sites on the other are occupied at equilibrium, for simple one-to-one binding. Higher therefore signals a looser complex. A word on the koff: it is the rate constant with which the complex falls apart. By kon is commonly meant the rate constant with which the complex forms.
